Patent US6399065 (SCHERING, dated 2002)
Each block holds one molecule with its values, some of them ahead of it.

B1: human SLAM (SLAM1, encoded by pSURslam1), cell surface (receptor)
chain: RMMNCPKILRQLGSKVLLPLTYERINKSMNKSIHIVVTMAKSLENSVENKIVSLDPSEAGPPRYLGDRYKFYLENLTLGIRESRKEDEGWYLMTLEKNVSVQRFCLQLRLYEQVSTPEIKVLNKTQENGTCTLILGCTVEKGDHVAYSWSEKAGTHPLNPANSSHLLSLTLGPQHADNIYICTVSNPISNNSQTFSPWPGCRTDPSETKPWAVYAGLLGGVIMILIMVVILQLRRRGKTNHYQTTVEKKSLTIYAQVQKPGPLQKKLDSFPAQDPCTTIYVAATEPVPESVQETNSITVYASVTLPES
B2: SLAM-Ig (SLAM-immunoglobulin fusion protein: entire extracellular domain of human SLAM fused to the Fc portion of human IgG1 heavy chain) (Fc fusion)
chain: ASYGTGGRMMNCPKILRQLGSKVLLPLTYERINKSMNKSIHIVVTMAKSLENSVENKIVSLDPSEAGPPRYLGDRYKFYLENLTLGIRESRKEDEGWYLMTLEKNVSVQRFCLQLRLYEQVSTPEIKVLNKTQENGTCTLILGCTVEKGDHVAYSWSEKAGTHPLNPANSSHLLSLTLGPQHADNIYICTVSNPISNNSQTFSPWPGCRTDPSETKP
notes: Fluorescein conjugated for flow cytometry; also called recombinant SLAM-Ig; soluble form of SLAM (SLAM-Ig); not shown: Fc portion of the human IgG1 heavy chain

Key:
[1] = target: human SLAM (SLAM1, encoded by pSURslam1), cell surface (human) (UniProt Q13291); test: cell-based or functional assay
[2] = target: the molecule itself; test: cell-based or functional assay
[3] = target: B1; test: flow cytometry on SLAM/L cells; reference mAb A12
Protocol: The binding of SLAM-Ig to SLAM transfectants is specific for the SLAM portion of the molecule and not the Ig, as the staining was performed in the presence of excess IgG in the 30% human serum added. Furthermore, SLAM transfectants were not stained by other Fc containing molecules such as CD40-Ig. The binding of SLAM-Ig was about 5-fold lower than the binding to SLAM/L cells observed using an equivalent concentration of the mAb A12. […] SLAM-Ig binding to transfected cells was not inhibited by EDTA.
(§1) The A12 anti-SLAM mAb has been described. Phycoerythrin conjugated CD45RO and CD3 mAbs were purchased from Becton-Dickinson. Cells stained with mAbs, SLAM-Ig or CD40-Ig were washed three times with PBS, 2% FCS and analyzed using a FACScan (Becton-Dickinson).

[4] = target: B1; test: flow cytometry on different SLAM-expressing cell types; reference mAb A12
Excerpt: as §1
However, SLAM-Ig did bind to EBV-transformed B-cell lines and CD4^+ T-cell clones, both cell types which we have shown to express SLAM. In no cell types tested did SLAM-Ig bind to cells not expressing SLAM. In addition, the levels of SLAM-Ig binding co-modulated with SLAM expression on CD45RO^+ T cells following activation with anti-CD3. The level of SLAM-IG staining relative to A12 staining on different cell-types was consistent with that observed on L-cell transfectants being 5-fold lower and Ca^++ independent.

[5] = target: the molecule itself; test: SPR (BIACORE), SLAM-Ig immobilized, SLAM-Ig in solution at 100 nM to 1500 nM, 5 µl/min
Protocol: (§2) Ab 7D4/SLAM-Ig and SLAM-Ig/SLAM-Ig binding kinetics and affinity were measured. About 8000 resonance units (RUs) of SLAM-Ig were covalently attached to the dextran matrix in the sensor chip via its lysines, according to the manufacturers protocol (BIACORE™ manual, Pharmacia Biosensor). Buffer (phosphate-buffer saline, PBS, pH 7.0) was passed through the flow cell until all of the dissociable protein was removed and the baseline remained stable. Solutions containing various concentrations of the antibody 7D4 in PBS (ranging from 10 nM to 500 nM) were then passed through the flow cell. An increase in mass of protein bound was observed, followed by a decrease when the protein solution was replaced with buffer. A non-linear data analysis protocol, O'Shannessy, et al. (1993) *Anal. Biochem.* 212:457–468, was used to analyze the data to determine the association (k_a) and dissociation (k_d) rate constants. The equilibrium dissociation constant K_d was then calculated from the ratio k_d/k_a.
SLAM-Ig/SLAM-Ig binding kinetics were measured in a similar manner. After immobilization of SLAM-Ig to the chip, solutions of SLAM-Ig at concentrations ranging from 100 nM to 1500 nM were passed through the flow cell at a flow rate of 5 μl/min. From the association and dissociation phases, the corresponding rate constants and thus the equilibrium binding constant were obtained.

[6] = target: the molecule itself; test: SPR (BIACORE), SLAM-Ig immobilized, SLAM-Ig in solution; apparent Kd from the rate constants
Protocol: The equilibrium constants for SLAM/SLAM interactions were analyzed by surface plasmon resonance using a BIACORE™ (Pharmacia) instrument. An anti-SLAM Ab 7D4 was used.
as §2
SLAM-Ig/SLAM-Ig binding kinetics were measured in a similar manner. […]

IFN-γ production (pg/ml) by antigen-stimulated T-cell clone Th0/ChT38; no antibody 5207, control Ab 7463 [1]: 20600 pg/mL
IFN-γ production (pg/ml) by antigen-stimulated T-cell clone Th0/MoT81; no antibody 5423, control Ab 6596 [1]: 18200 pg/mL
IFN-γ production (pg/ml) by antigen-stimulated T-cell clone Th1/HY06; no antibody 5982, control Ab 5904 [1]: 21900 pg/mL
IFN-γ production (pg/ml) by antigen-stimulated T-cell clone Th1/TA20; no antibody 8374, control Ab 8070 [1]: 15400 pg/mL
IFN-γ production (pg/ml) by antigen-stimulated T-cell clone Th2/MoT72; no antibody 496, control Ab 170 [1]: 8580 pg/mL
IFN-γ production (pg/ml) by antigen-stimulated T-cell clone Th2/NP12; no antibody 962, control Ab 902 [1]: 8300 pg/mL
IFN-γ production (pg/ml) by antigen-stimulated T-cell clone Th2/NP44; no antibody 1073, control Ab 1319 [1]: 7660 pg/mL
IFN-γ production by Th2 clones, fold upregulation [1]: 5 to 17 fold
IL-4 production (pg/ml) by antigen-stimulated T-cell clone Th0/ChT38; no antibody 12907, control Ab 10102 [1]: 15000 pg/mL
IL-4 production (pg/ml) by antigen-stimulated T-cell clone Th0/MoT81; no antibody 8455, control Ab 8451 [1]: 11100 pg/mL
IL-4 production (pg/ml) by antigen-stimulated T-cell clone Th1/HY06; no antibody 48, control Ab 40 [1]: 90 pg/mL
IL-4 production (pg/ml) by antigen-stimulated T-cell clone Th1/TA20; no antibody 62, control Ab 69 [1]: 97 pg/mL
IL-4 production (pg/ml) by antigen-stimulated T-cell clone Th2/MoT72; no antibody 8805, control Ab 8542 [1]: 16500 pg/mL
IL-4 production (pg/ml) by antigen-stimulated T-cell clone Th2/NP12; no antibody 6636, control Ab 6486 [1]: 11100 pg/mL
IL-4 production (pg/ml) by antigen-stimulated T-cell clone Th2/NP44; no antibody 11617, control Ab 11738 [1]: 10400 pg/mL
anti-CD3 induced T-cell proliferation at optimal anti-CD3, fold increase [1]: 2 to 3 fold
Molecule: anti-SLAM monoclonal antibody A12 (IgG1)

Molecule: B1
proliferation of T cell clone B21 activated with SLAM/L cells, fold enhancement by cyclosporin at 2 µg/ml [2]: 2 fold

Molecule: B2
fold lower binding than an equivalent concentration of mAb A12 [3]: ~5 fold
fold lower staining relative to A12 staining [4]: 5 fold
koff [5]: 0.011 s⁻¹
kon [5]: 12000 M⁻¹ s⁻¹
Kd [6]: 920 nM
